According to patent US20210063414A1, “METHODS FOR PREVENTING AND/OR TREATING BONE LOSS CONDITIONS BY MODULATING IRISIN” (Dana-Farber Cancer Institute, Inc., priority 2018, published 2021):

Columns and labels:
[1] = target: T1, integrin αV/β3 (Homo sapiens, UniProt P05106+P06756); assay: FAK phosphorylation in HEK293T cells with forced expression of integrin αV/β3; format: cell-based; conditions: HEK293T with integrin αV/β3, vitronectin-coated plates
T1 construct: expressed in transfected cells; host or cells: HEK293T
Protocol: 100 nM irisin was incubated with 5 nM indicated his-tag integrins followed by immunoprecipitation using Ni-NTA agaroses. Precipitated integrins and co-precipitated irisin were analyzed by immunoblot analysis. […] HEK293T cells were seeded and incubated until 50% cell density. The cells were transfected with 0.1 μg plasmids of indicated integrins. After 48 hours, the cells were incubated with Freestyle293 medium for 3 hours and were treated with indicated concentration of irisin for 5 minutes. Cells were lysed to detect the indicated protein level using immunoblot analysis. […] MLO-Y4 cells were treated as described in FIG. 2D with addition of pretreatment of indicated antagonistic antibodies for 10 minutes. Cells were lysed to detect the indicated protein level using immunoblot analysis. […] Sclerostin mRNA level was analyzed by qRT-PCR. […]
100 nM irisin was incubated with 5 nM indicated his-tag integrins followed by immunoprecipitation using Ni-NTA agaroses. Precipitated integrins and co-precipitated irisin were analyzed by immunoblot analysis. […] Cells were treated and analyzed as FIG. 14B except using plasmids encoding integrin α5/β1 or integrin α11/β1 (FIG. 15C) integrin αV/β1(FIG. 15D). […]
(§1) Cells were harvested in RIPA buffer containing protease-inhibitor cocktail and phosphataseinhibitor cocktail. […] Protein levels were analyzed via western blot using indicated antibody. […]

[2] = target: T2, integrin αV/β5 (Homo sapiens, UniProt P06756+P18084); assay: FAK phosphorylation in HEK293T cells with forced expression of integrin αV/β5; format: cell-based; conditions: HEK293T with integrin αV/β5, vitronectin-coated plates
T2 construct: expressed in transfected cells; host or cells: HEK293T
Protocol: 100 nM irisin was incubated with 5 nM indicated his-tag integrins followed by immunoprecipitation using Ni-NTA agaroses. Precipitated integrins and co-precipitated irisin were analyzed by immunoblot analysis. […] HEK293T cells were seeded and incubated until 50% cell density. The cells were transfected with 0.1 μg plasmids of indicated integrins. After 48 hours, the cells were incubated with Freestyle293 medium for 3 hours and were treated with indicated concentration of irisin for 5 minutes. Cells were lysed to detect the indicated protein level using immunoblot analysis. […] MLO-Y4 cells were treated as described in FIG. 2D with addition of pretreatment of indicated antagonistic antibodies for 10 minutes. Cells were lysed to detect the indicated protein level using immunoblot analysis. […] MLO-Y4 cells were treated as described in FIG. 1B except with addition of the pretreatment of indicated antagonistic antibodies for 10 minutes. Sclerostin mRNA level was analyzed by qRT-PCR. Cyclophilin was used for house-keeping gene. […] The ribbon diagram is colored by HDX stabilization/destabilization. Percentages of deuterium differences are color-coded according to the smooth color gradient key at the bottom. Crystal structure of irisin dimer is from Protein Data Bank (PDB) (4 lsd) and a homology model of integrin β5 was built based on integrin β3 structure from PDB (4MMX).
100 nM irisin was incubated with 5 nM indicated his-tag integrins followed by immunoprecipitation using Ni-NTA agaroses. Precipitated integrins and co-precipitated irisin were analyzed by immunoblot analysis. […] HEK293T cells were seeded and incubated until 50% cell density. The cells were transfected with 0.1 μg plasmids of indicated integrins. After 48 hours, the cells were re-split to indicated dose of vitronectin-coated plates. Cells were incubated with culture medium for 3 hours. Cells were lysed to detect the indicated protein level using immunoblot analysis. FIG. 15C and FIG. 15D show the immunoblot data. Cells were treated and analyzed as FIG. 14B except using plasmids encoding integrin α5/β1 or integrin α11/β1 (FIG. 15C) integrin αV/β1(FIG. 15D).
MLO-Y4 cells were treated and analyzed as described in FIG. 5A with addition of pretreatment of control RGD peptide, cyclo RGDyK (cRGDyK), or SB273005. […] HEK293 cells were treated and analyzed as described in FIG. 14B except the treatment of different dose of cyclo RGDyK. […] 8 weeks old male mice were treated and analyzed as described in FIG. 5D except the additional group with co-injection of 1 mg/kg SB273005. […]
as §1

T2 sequence (P06756 31-889 limits assumed): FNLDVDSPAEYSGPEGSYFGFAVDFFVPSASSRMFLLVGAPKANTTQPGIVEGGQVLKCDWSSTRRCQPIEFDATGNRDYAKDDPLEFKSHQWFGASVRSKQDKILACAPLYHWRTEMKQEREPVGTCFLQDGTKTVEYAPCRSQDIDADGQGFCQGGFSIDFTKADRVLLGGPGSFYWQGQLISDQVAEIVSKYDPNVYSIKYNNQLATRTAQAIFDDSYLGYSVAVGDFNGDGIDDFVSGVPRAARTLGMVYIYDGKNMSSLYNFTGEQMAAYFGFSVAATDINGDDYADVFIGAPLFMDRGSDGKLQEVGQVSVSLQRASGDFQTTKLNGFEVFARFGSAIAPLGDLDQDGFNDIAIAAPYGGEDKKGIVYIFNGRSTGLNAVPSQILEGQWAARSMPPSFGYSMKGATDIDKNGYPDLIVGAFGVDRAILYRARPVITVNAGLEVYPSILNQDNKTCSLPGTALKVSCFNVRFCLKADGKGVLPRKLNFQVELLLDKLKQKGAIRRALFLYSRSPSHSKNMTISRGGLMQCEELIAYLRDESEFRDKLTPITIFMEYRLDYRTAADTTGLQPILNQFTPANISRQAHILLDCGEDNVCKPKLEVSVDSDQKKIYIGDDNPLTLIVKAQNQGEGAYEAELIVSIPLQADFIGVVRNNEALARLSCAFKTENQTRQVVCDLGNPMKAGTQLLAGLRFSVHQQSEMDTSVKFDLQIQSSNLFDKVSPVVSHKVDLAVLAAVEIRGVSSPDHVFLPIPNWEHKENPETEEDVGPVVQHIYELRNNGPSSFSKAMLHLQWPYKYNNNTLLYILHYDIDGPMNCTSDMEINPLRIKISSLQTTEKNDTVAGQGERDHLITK
T2 sequence (P06756 891-1048 partner limits assumed): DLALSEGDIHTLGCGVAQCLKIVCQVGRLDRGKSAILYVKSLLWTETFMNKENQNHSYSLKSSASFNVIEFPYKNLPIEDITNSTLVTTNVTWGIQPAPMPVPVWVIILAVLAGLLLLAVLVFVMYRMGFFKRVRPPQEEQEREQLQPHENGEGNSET
T2 sequence (P18084 24-799): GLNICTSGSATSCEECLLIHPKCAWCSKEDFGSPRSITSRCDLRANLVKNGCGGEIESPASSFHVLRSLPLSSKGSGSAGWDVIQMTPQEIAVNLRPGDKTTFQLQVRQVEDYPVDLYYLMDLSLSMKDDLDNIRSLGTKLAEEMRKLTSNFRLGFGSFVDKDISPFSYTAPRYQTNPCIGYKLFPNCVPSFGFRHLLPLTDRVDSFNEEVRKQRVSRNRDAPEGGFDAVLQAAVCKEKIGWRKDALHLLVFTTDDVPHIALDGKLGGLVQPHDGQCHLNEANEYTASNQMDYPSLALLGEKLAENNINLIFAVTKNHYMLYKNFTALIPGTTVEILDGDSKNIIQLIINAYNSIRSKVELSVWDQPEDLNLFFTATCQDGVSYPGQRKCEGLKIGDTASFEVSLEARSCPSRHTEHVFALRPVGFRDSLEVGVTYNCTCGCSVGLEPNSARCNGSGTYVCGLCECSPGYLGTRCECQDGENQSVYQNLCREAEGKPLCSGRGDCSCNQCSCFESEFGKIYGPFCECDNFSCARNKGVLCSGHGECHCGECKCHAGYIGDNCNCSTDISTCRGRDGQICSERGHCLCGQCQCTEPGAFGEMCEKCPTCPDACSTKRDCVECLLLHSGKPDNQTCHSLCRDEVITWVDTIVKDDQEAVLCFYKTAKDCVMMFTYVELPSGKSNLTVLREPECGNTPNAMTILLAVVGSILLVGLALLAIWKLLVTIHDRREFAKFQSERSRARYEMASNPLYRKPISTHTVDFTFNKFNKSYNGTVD
T1 sequence (P06756 31-889 limits assumed): as the sequence (P06756 31-889 limits assumed) above
T1 sequence (P06756 891-1048 partner limits assumed): as the sequence (P06756 891-1048 partner limits assumed) above
T1 sequence (P05106 27-788): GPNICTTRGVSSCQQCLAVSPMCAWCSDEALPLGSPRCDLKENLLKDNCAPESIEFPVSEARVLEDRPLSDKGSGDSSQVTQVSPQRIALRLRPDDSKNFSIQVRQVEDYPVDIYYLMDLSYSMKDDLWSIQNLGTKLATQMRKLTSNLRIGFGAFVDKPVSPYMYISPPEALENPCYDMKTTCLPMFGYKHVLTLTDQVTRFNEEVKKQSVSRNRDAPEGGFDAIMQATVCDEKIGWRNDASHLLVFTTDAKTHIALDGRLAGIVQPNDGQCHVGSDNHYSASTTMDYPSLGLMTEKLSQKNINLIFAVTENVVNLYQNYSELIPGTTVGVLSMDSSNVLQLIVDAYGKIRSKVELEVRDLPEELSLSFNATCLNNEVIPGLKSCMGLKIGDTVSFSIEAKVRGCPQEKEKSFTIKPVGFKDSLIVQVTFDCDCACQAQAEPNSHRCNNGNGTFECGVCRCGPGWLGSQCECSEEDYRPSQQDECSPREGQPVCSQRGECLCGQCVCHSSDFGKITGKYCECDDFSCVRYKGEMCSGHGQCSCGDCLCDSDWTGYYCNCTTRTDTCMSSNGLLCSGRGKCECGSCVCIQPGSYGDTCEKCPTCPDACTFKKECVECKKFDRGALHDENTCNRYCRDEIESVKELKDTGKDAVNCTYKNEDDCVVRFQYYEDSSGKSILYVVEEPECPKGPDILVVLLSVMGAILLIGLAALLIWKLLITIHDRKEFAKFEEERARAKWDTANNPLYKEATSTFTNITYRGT

Vitronectin: a ligand for integrin αV family, positive control [reference compound]
phosphorylation of FAK (positive control) [1]: induced phosphorylation of FAK
phosphorylation of FAK (positive control) [2]: induced phosphorylation of FAK
